Experimental data reported in patent US20160053007A1.

Target: DR3 on mouse CD4+ T cells (mouse)
Assay: cell-based or functional assay

DR3 on mouse CD4+ T cells (mouse), sequence (Q9QZZ6 19-201): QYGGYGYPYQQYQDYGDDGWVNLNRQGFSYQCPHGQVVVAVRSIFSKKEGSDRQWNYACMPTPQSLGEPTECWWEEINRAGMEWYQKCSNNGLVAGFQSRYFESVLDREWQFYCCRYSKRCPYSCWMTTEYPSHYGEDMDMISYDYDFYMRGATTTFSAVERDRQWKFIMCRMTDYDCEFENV

recombinant mouse TL1A (from UniProt Q5UBV8 76-252) (ligand)
IL-2 production by activated T cells, increase by TL1A: < 2 fold
IL-4 production by activated T cells, increase by TL1A: 10 fold
interferon-γ production by activated T cells, increase by TL1A: < 2 fold
